Where a chain is given by its changes, count along the chain named.
Key:
Assay type in all cases: biochemical
human BVR [1] = molecular target: T1, human BVR (Homo sapiens, UniProt P53004, A154S/E160D/G155D); assay: BVR autophosphorylation; details: pH 8.4; 20 mM Zn acetate, also with Mn+2
T1 construct: made in house
T1 sequence (P53004 1-296 A154S/G155D/E160D): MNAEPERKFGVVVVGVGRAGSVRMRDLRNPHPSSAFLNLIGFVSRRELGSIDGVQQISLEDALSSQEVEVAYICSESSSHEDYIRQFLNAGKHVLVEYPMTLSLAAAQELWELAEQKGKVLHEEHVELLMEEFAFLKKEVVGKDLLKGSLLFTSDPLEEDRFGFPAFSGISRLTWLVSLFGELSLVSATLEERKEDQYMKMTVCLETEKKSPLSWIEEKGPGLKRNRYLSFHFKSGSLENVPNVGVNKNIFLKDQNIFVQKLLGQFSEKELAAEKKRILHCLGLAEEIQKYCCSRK
Procedure: (§1) BVR autophosphorylation and kinase activity: To detect autophosphorylation of BVR, GST-hBVR of wild type (wt) and mutant variants were incubated in 50 mM HEPES buffer (pH 8.4) in the presence of 30 mM MnCl2 and 1 mM DTT for 2 h at 30° C. The reaction was started with the addition of 10 μM ATP labeled with 10 μCi [γ-^32P]-ATP and was stopped with the addition of Laemmli sample buffer. Samples were boiled for 3 min and applied to a 8% SDS-PAGE gels, transferred to a PVDF membrane, and then visualized by autoradiography. To measure kinase activity, GST-BVR (5 μg) was incubated in 50 μl kinase buffer containing 50 mM HEPES buffer (pH 8.4), 20 mM MgCl2, 30 mM MnCl2, 1 mM DTT and 10 μM ATP labeled with 10 μCi [γ-^32P]-ATP in the presence of 5 μg substrates: IRS-1 or Raytide or poly glu/tyr (4:1) for 2 h at 30° C. The reaction was started with the addition of ATP and terminated by adding 120 μl 10% H3PO4. 100 μl aliquots were directly transferred to P81 Whatman filters which were subsequently washed extensively in 0.75% phosphoric acid at room temperature. Finally, the filters were submerged in acetone for 5 min, dried, and retained counts were measured using a Beckman LS 6500 liquid scintillation counter (Beckman Coulter, Fullerton, Calif.).

human BVR [2] = molecular target: T1, human BVR; assay: BVR kinase activity on substrates (IRS-1, IRS-1 peptides, Raytide, poly glu/tyr); details: peptide as substrate of BVR, [γ-32P]-ATP
Procedure: as §1

[3] = molecular target: T2, insulin receptor tyrosine kinase (IRK) (Homo sapiens, UniProt P06213); assay: BVR phosphorylation by the insulin receptor tyrosine kinase (IRK), in vitro [32P]-ATP assay; details: for decrease of BVR phosphorylation by IRK caused by point mutation / BVR phosphorylation by IRK (tyrosine mutants, in words): mutant vs wtBVR, IRK 2 h at 30° C.
T2 construct: the 48 kDa cytoplasmic domain of the β-subunit of IRK; purchased Biomol International (Plymouth, Pa.)
Procedure: BVR phosphoiylation by the insulin receptor tyrosine kinase (IRK): Phosphorylation of BVR by IRK was examined using GST-HBVR fusion protein and the 48 kDa cytoplasmic domain of the β-subunit of IRK. BVR (5 μg) was incubated in 50 μl of IRK kinase buffer containing 50 mM HEPES (pH 8.0), 20 mM MgCl2, 1 mM DTT in the presence of 0.05 μg IRK and 10 μM ATP labeled with 10 μCi [γ-^32P]-ATP. The reaction was started with the addition of labeled ATP and incubated for 2-4 h. Reactions were terminated by addition of Laemmli sample buffer and boiled for 3 min. Samples were subjected to 8% SDS-PAGE and transferred to PVDF membranes for autoradiography.

human BVR [4] = assay: BVR autophosphorylation; details: pH 8.4, 30 mM MnCl2, 2 h, 30° C.
Procedure: as §1

human BVR [5] = assay: BVR kinase activity on substrates (IRS-1, IRS-1 peptides, Raytide, poly glu/tyr); details: protein tested as kinase for IRS; Mn+2 and Mg+2 present
Procedure: as §1

T2 sequence (P06213 980-1382 limits assumed): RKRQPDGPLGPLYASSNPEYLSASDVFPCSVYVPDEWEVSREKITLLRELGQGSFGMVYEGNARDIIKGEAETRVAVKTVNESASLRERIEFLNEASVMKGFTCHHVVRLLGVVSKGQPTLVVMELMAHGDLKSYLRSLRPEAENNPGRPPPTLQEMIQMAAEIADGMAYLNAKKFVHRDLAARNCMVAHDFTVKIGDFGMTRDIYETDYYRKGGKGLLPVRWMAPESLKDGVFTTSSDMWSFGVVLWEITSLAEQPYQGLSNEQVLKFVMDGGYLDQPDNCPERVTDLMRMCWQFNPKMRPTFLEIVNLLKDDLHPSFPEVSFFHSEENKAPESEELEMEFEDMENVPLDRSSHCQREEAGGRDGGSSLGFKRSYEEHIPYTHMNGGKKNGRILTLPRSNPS

Molecule: CC(=O)[O-].CC(=O)[O-].[Zn+2] [Zn^+2, Zn acetate, reference compound]
- effect of metal ion on BVR autophosphorylation (human BVR [1]): inhibitory to BVR autophosphorylation

Molecule: Arg-Thr-Glu-Ser^307-Ile-Thr-Ala-Thr-Ser^312-Pro-Ala-Ser^315-Met-Val-Gly-Gly-Lys-Pro (RTESITATSPASMVGGKP; peptide fragment of Homo sapiens Insulin Receptor Substrate (Peptide 2)) [IRS-1 peptide (#2), reference compound]
- phosphorylation of IRS-1 peptide by BVR (human BVR [2]): 1198±230 cpm

Molecule: O=C(O)CN(CCN(CC(=O)O)CC(=O)O)CC(=O)O [EDTA, reference compound]
- effect on phosphorylation of BVR by IRK ([3]; 50 mM EDTA (pH 8.0), 30° C., 2 h, anti-phosphotyrosine blot): abolished phosphorylation of BVR by IRK

Molecule: Lys-Lys-His-Ala-Asp-Asp-Gly-Ala-Met-Pro-Met-Ser^312-Pro-Gly-Val-Ala (KKHADDGAMPMSPGVA; mutant peptide fragment of Homo sapiens Insulin Receptor Substrate (Peptide 1)) [mutant IRS-1 peptide (#1), reference compound]
- phosphorylation of IRS-1 peptide by BVR (human BVR [2]): 1049±78 cpm

Molecule: O=c1c(-c2ccc(O)cc2)coc2cc(O)cc(O)c12 [Genestein, reference compound]
- effect on BVR phosphorylation mediated by IRK ([3]; genestein 200 μM, HEPES pH 8.0, 20 mM MgCl2): significantly inhibited BVR phosphorylation mediated by IRK

B1: Y^228: human BVR point mutant, NRYLS to NRFLS (protein, UniProt P53004 3-296, looked up, variant Y228F)
Biliverdin reductase A: AEPERKFGVVVVGVGRAGSVRMRDLRNPHPSSAFLNLIGFVSRRELGSIDGVQQISLEDALSSQEVEVAYICSESSSHEDYIRQFLNAGKHVLVEYPMTLSLAAAQELWELAEQKGKVLHEEHVELLMEEFAFLKKEVVGKDLLKGSLLFTAGPLEEERFGFPAFSGISRLTWLVSLFGELSLVSATLEERKEDQYMKMTVCLETEKKSPLSWIEEKGPGLKRNRFLSFHFKSGSLENVPNVGVNKNIFLKDQNIFVQKLLGQFSEKELAAEKKRILHCLGLAEEIQKYCCSRK
- autophosphorylation of BVR mutants (human BVR [4]): did not result in significant changes in autophosphorylation of BVR
- decrease of BVR phosphorylation by IRK caused by point mutation [3]: 40%

B2: Y^198 plus Y^228: human BVR double mutant, DQFMK and NRFLS (protein, UniProt P53004 3-296, looked up, variant Y198F Y228F)
Biliverdin reductase A: B1 Biliverdin reductase A with Y196F
- BVR phosphorylation by IRK (tyrosine mutants, in words) [3]: little or no phosphorylation was detected

B3: Y^291: human BVR point mutant, QKYCC to QKFCC (protein, UniProt P53004 3-296, looked up, variant Y291F)
Biliverdin reductase A: B1 Biliverdin reductase A with F226Y, Y289F
- autophosphorylation of BVR mutants (human BVR [4]): did not result in significant changes in autophosphorylation of BVR
- decrease of BVR phosphorylation by IRK caused by point mutation [3]: 49%

B4: T^202: human BVR point mutant, KMTVC to KMAVC (protein, UniProt P53004 3-296, looked up, variant T202A)
Biliverdin reductase A: B1 Biliverdin reductase A with T200A, F226Y
- autophosphorylation of BVR mutants (human BVR [4]): found to be a target of autophosphorylation

B5: Y^198 plus Y^291: human BVR double mutant, DQFMK and QKFCC (protein, UniProt P53004 3-296, looked up, variant Y198F Y291F)
Biliverdin reductase A: B1 Biliverdin reductase A with Y196F, F226Y, Y289F
- BVR phosphorylation by IRK (tyrosine mutants, in words) [3]: little or no phosphorylation was detected

B6: G^17: human BVR point mutant in ATP binding domain, GVGRA to GVARA (protein, UniProt P53004 3-296, looked up, variant G17A)
Biliverdin reductase A: B1 Biliverdin reductase A with G15A, F226Y
- IRS phosphorylation (human BVR [5]): for the most part, prevented IRS phosphorylation by BVR

B7: HO-1: heme oxygenase isozyme, used as a control for kinase activity (protein, UniProt P09601 1-288, looked up)
Heme oxygenase 1: MERPQPDSMPQDLSEALKEATKEVHTQAENAEFMRNFQKGQVTRDGFKLVMASLYHIYVALEEEIERNKESPVFAPVYFPEELHRKAALEQDLAFWYGPRWQEVIPYTPAMQRYVKRLHEVGRTEPELLVAHAYTRYLGDLSGGQVLKKIAQKALDLPSSGEGLAFFTFPNIASATKFKQLYRSRMNSLEMTPAVRQRVIEEAKTAFLLNIQLFEELQELLTHDTKDQSPSRAPGLRQRASNKVQDSAPVETPRGKPPLNTRSQAPLLRWVLTLSFLVATVAVGLYAM
- IRS phosphorylation (human BVR [5]): did not significantly effect IRS phosphorylation

B8: HO-2: heme oxygenase isozyme, used as a control for kinase activity (protein, UniProt P30519 2-316, looked up)
Heme oxygenase 2: SAEVETSEGVDESEKKNSGALEKENQMRMADLSELLKEGTKEAHDRAENTQFVKDFLKGNIKKELFKLATTALYFTYSALEEEMERNKDHPAFAPLYFPMELHRKEALTKDMEYFFGENWEEQVQCPKAAQKYVERIHYIGQNEPELLVAHAYTRYMGDLSGGQVLKKVAQRALKLPSTGEGTQFYLFENVDNAQQFKQLYRARMNALDLNMKTKERIVEEANKAFEYNMQIFNELDQAGSTLARETLEDGFPVHDGKGDMRKCPFYAAEQDKGALEGSSCPFRTAMAVLRKPSLQFILAAGVALAAGLLAWYYM
- IRS phosphorylation (human BVR [5]): did not significantly effect IRS phosphorylation
